In patent publication US7374920B2, “Ginkgo biloba levopimaradiene synthase” (priority 2001, dated 2008):
Entries after “also recorded” stand apart in the source; their conditions may differ.

B1: Ala^2 (protein, listed as Ginkgo biloba)
chain: MAGVLFANLPCSLQLSPKVPFRQSTNILIPFHKRSSFGFNAQHCVRSHLRLRWNCVGIHASAAETRPDQLPQEERFVSRLNADYHPAVWKDDFIDSLTSPNSHATSKSSVDETINKRIQTLVKEIQCMFQSMGDGETNPSAYDTAWVARIPSIDGSGAPQFPQTLQWILNNQLPDGSWGEECIFLAYDRVLNTLACLLTLKIWNKGDIQVQKGVEFVRKHMEEMKDEADNHRPSGFEVVFPAMLDEAKSLGLDLPYHLPFISQIHQKRQKKLQKIPLNVLHNHQTALLYSLEGLQDVVDWQEITNLQSRDGSFLSSPASTACVFMHTQNKRCLHFLNFVLSKFGDYVPCHYPLDLFERLWAVDTVERLGIDRYFKKEIKESLDYVYRYWDAERGVGWARCNPIPDVDDTAMGLRILRLHGYNVSSDVLENFRDEKGDFFCFAGQTQIGVTDNLNLYRCSQVCFPGEKIMEEAKTFTTNHLQNALAKNNAFDKWAVKKDLPGEVEYAIKYPWHRSMPRLEARSYIEQFGSNDVWLGKTVYKMLYVSNEKYLELAKLDFNMVQALHQKETQHIVSWWRESGFNDLTFTRQRPVEMYFSVAVSMFEPEFAACRIAYAKTSCLAVILDDLYDTHGSLDDLKLFSEAVRRWDISVLDSVRDNQLKVCFLGLYNTVNGFGKDGLKEQGRDVLGYLRKVWEGLLASYTKEAEWSAAKYVPTFNEYVENAKVSIALATVVLNSIFFTGELLPDYILQQVDLRSKFLHLVSLTGRLINDTKTYQAERNRGELVSSVQCYMRENPECTEEEALSHVYGIIDNALKELNWELANPASNAPLCVRRLLFNTARVMQLFYMYRDGFGISDKEMKDHVSRTLFDPVA
B2: Ser^61: Ginkgo biloba levopimaradiene synthase truncated at Ala^60-Ser^61; amino acid sequence SEQ.ID.NO:35 (protein, listed as Ginkgo biloba)
chain: MSAAETRPDQLPQEERFVSRLNADYHPAVWKDDFIDSLTSPNSHATSKSSVDETINKRIQTLVKEIQCMFQSMGDGETNPSAYDTAWVARIPSIDGSGAPQFPQTLQWILNNQLPDGSWGEECIFLAYDRVLNTLACLLTLKIWNKGDIQVQKGVEFVRKHMEEMKDEADNHRPSGFEVVFPAMLDEAKSLGLDLPYHLPFISQIHQKRQKKLQKIPLNVLHNHQTALLYSLEGLQDVVDWQEITNLQSRDGSFLSSPASTACVFMHTQNKRCLHFLNFVLSKFGDYVPCHYPLDLFERLWAVDTVERLGIDRYFKKEIKESLDYVYRYWDAERGVGWARCNPIPDVDDTAMGLRILRLHGYNVSSDVLENFRDEKGDFFCFAGQTQIGVTDNLNLYRCSQVCFPGEKIMEEAKTFTTNHLQNALAKNNAFDKWAVKKDLPGEVEYAIKYPWHRSMPRLEARSYIEQFGSNDVWLGKTVYKMLYVSNEKYLELAKLDFNMVQALHQKETQHIVSWWRESGFNDLTFTRQRPVEMYFSVAVSMFEPEFAACRIAYAKTSCLAVILDDLYDTHGSLDDLKLFSEAVRRWDISVLDSVRDNQLKVCFLGLYNTVNGFGKDGLKEQGRDVLGYLRKVWEGLLASYTKEAEWSAAKYVPTFNEYVENAKVSIALATVVLNSIFFTGELLPDYILQQVDLRSKFLHLVSLTGRLINDTKTYQAERNRGELVSSVQCYMRENPECTEEEALSHVYGIIDNALKELNWELANPASNAPLCVRRLLFNTARVMQLFYMYRDGFGISDKEMKDHVSRTLFDPVA

Assays:
[1] = in vitro enzymatic assay of levopimaradiene synthase constructs expressed in E. coli BL21(DE3); type: biochemical, Escherichia coli; conditions: for diterpene product on bacterial expression: E. coli BL21(DE3), soluble lysate fraction, 20 μM GGDP, overnight at 32° C., GC and GC/MS
Protocol: The desired plasmids were prepared by ligating the mutated gene insert into the similarly digested vectors pET32c(+) (Novagen; Madison, Wis.) and pRS426GAL (Hua, 2000), a multiple copy yeast expression vector. These plasmids was expressed in E. coli BL21(DE3) (Novagen; Madison, Wis.). E. coli cells were grown in Luria-Bertani medium supplemented with 100 μg/mL ampicillin at 37° C. with shaking to OD600 ˜0.6. The following parameters were tested: isopropyl 1-thio-β-D-galactopyranoside (IPTG) concentration (50, 100, 250, 500, and 1000 μM); and temperature and time (20° C. for 2, 3, 4, 6, 21 hours, 22° C. for 6, 8, 16, 19, 22, 45 hours, and 30° C. for 3, 6 hours). The following assay conditions were tested to obtain maximum diterpene product yield: 30 mM HEPES (N-2-hydroxyethylpiperazine-N′-[…]), pH 6.9, 7.2, 7.6, 8.0; 30 mM Tris (tris(hydroxymethyl)aminomethane hydrochloride), pH 7.4, 7.8, 8.2; 1, 5, 10% glycerol; 1, 3, 5, 10, 20 mM DTT (dithiothreitol); 20 mM β-mercaptoethanol; 2, 5, 8% Triton X-100; 5% Tween 80; 0, 2, 7.5, 20, 50 mM MgCl2; 0, 30, 500, 1000 μM MnCl2; 2, 10, 13.3, 20, 40, 80, 200 μM GGDP; and 23° C. and 32° C. assay temperatures.
Optimal soluble protein production and diterpene yield were obtained with the following conditions. Cell cultures were induced with 1 mM IPTG at 20° C. with shaking for 6 hours and lysed by sonication in 30 mM HEPES, pH 7.2, 5 mM DTT, and 5% glycerol. The soluble fraction of the lysate (100 mg/mL) was incubated with 20 μM GGDP in 30 mM HEPES, pH 7.2, 5 mM DTT, 5% glycerol, 2 mM MgCl2, and 500 μM MnCl2 overnight at 32° C.
(§1) All in vitro reactions were extracted 3× with hexane and dried over MgSO4. The reaction was further extracted twice with diethyl ether and dried over MgSO4. Thereafter, the crude lysate was suspended in 100 mM Tris, pH 8.0 containing 2.9 units/mg apyrase (a dephosphorylating agent) and 10 units/μL calf intestinal alkaline phosphatase, incubated at 30° C. for 3 hours, and extracted with diethyl ether as noted above (Croteau and Cane, 1985). The crude reaction mixtures were eluted over SiO2, concentrated, and analyzed by GC and GC/MS.
(§2) Gas chromatography spectra were obtained on a Hewlett Packard 6890 Series GC System equipped with an Rtx-5 capillary column (Restek, 30 m×0.25 mm i.d., 0.10 μm df). The following separation conditions and temperature program were employed: injector port 250° C., FID 250° C., split ratio 39:1, helium flow 20 cm/s (0.6 mL/min), 150° C. hold 5 min, increase to 250° C. (5° C./min), hold 5 min. GC/MS spectra were obtained on a Hewlett-Packard 5890A instrument with a 30-m DB-5 ms column (J&W Scientific Inc., 0.25 mm i.d., 0.10 μm df). The following separation conditions and temperature program were employed: injector port 280° C., transfer lines: 280° C., helium flow at 30 cm/s (1 mL/min) with splitless injection at 150° C. hold 3 min, increase to 250° C. (5° C./min), hold 5 min. Mass spectra (m/z 50 to 500) were obtained on a VG ZAB-HF reverse-geometry double-focusing instrument at 70 eV with an electron-impact ion source (200° C.). Accelerating voltage was set to 8 kV and the resolution was 1000 (10% valley).
The skilled artisan recognizes that lysis and assay conditions should be optimized. Examples of parameters that can be adjusted to optimize conditions include altering buffer, pH, reductant, reductant concentration, metal cofactors, cofactor concentrations, glycerol concentrations, substrate concentrations, and assay temperatures. […] Maximum soluble protein production and diterpene yield were obtained with the following conditions. Cell cultures were induced with 1 mM IPTG at 20° C. with shaking for 6 hours and lysed by sonication in 30 mM HEPES, pH 7.2, 5 mM DTT, and 5% glycerol. The soluble fraction of the lysate (100 mg/1 mL) was incubated with 20 μM GGDP in 30 mM HEPES, pH 7.2, 5 mM DTT, 5% glycerol, 2 mM MgCl2, and 500 μM MnCl2 overnight at 32° C. […]

[2] = in vitro assay of levopimaradiene synthase constructs expressed in wild-type S. cerevisiae JBY575; type: biochemical, Saccharomyces cerevisiae; conditions: wild-type S. cerevisiae JBY575, galactose 48 hours, lysate with GGDP
Protocol: Expression in S. cerevisiae JBY575, which represents wild-type yeast, was observed. JBY575 cells transformed with pRS426GAL inserted with the putative levopimaradiene synthase were grown in synthetic complete medium lacking uracil and supplemented with 2% glucose and 1.5% agar at 30° C. to saturation and induced with galactose for 48 hours. Cells were harvested, resuspended in lysis buffer, and mixed by vortexing over glass beads. The lysate was assayed with 60 μM GGDP in the presence and absence of 0.2% and 5% Triton X-100.
as §1, §2
The skilled artisan recognizes that lysis and assay conditions should be optimized. Examples of parameters that can be adjusted to optimize conditions include altering buffer, pH, reductant, reductant concentration, metal cofactors, cofactor concentrations, glycerol concentrations, substrate concentrations, and assay temperatures. […] Maximum soluble protein production and diterpene yield were obtained with the following conditions. Cell cultures were induced with 1 mM IPTG at 20° C. with shaking for 6 hours and lysed by sonication in 30 mM HEPES, pH 7.2, 5 mM DTT, and 5% glycerol. The soluble fraction of the lysate (100 mg/1 mL) was incubated with 20 μM GGDP in 30 mM HEPES, pH 7.2, 5 mM DTT, 5% glycerol, 2 mM MgCl2, and 500 μM MnCl2 overnight at 32° C. Yeast expression was induced with galactose at 30° C. for 48 hours and the cells were lysed and assayed according to the conditions noted.

Molecule	diterpene product on bacterial expression [1]	diterpene product on bacterial expression ([1]; listed as full-length cDNA)	difference in activity between highest (Ser^61) and lowest (Ala^2) levels ([1]; bacterial expression)	diterpene product on yeast expression [2]	diterpene product on yeast expression ([2]; listed as full-length)	turnover of GGDP ([1]; bacterial expression, highest expression levels)
B1	produced levopimaradiene as the exclusive diterpene hydrocarbon	provided enzymatic activity capable of cyclizing geranylgeranyl diphosphate to levopimaradiene	approximately 80%	failed to produce observable levels of any diterpene product	failed to produce detectable levels of biosynthetic product	
B2	produced levopimaradiene as the exclusive diterpene hydrocarbon; also recorded: provided enzymatic activity capable of cyclizing geranylgeranyl diphosphate to levopimaradiene			yielded levopimaradiene as the sole diterpene; also recorded: yielded levopimaradiene synthase activity		approximately 1%
